Assay results: paper PMC5900708

Target: human DOT1L^CC2 (second coiled-coil domain of DOT1L) (human) (UniProt Q8TEK3)
Assay: SEC

With “human DOT1L^CC2 (second coiled-coil domain of DOT1L) (from UniProt Q8TEK3 1-1537) (domain or fragment)” the stoichiometry N was 2.
